Legend:
[1] = target: T1, human plasmin (human, UniProt P00747 97-810, limits assumed); experiment: chromogenic (S-2251) amidolytic inhibition assay, plasmin 30 nM
Protocol: Example I provides an illustrative example of assessment of the inhibitory activity. […] The chromogenic substrate S-2251 (D-Val-Leu-Lys-p-nitroanilide; DiaPharma Group Inc., West Chester, Ohio) was then added and residual plasmin amidolytic activity was measured at 405 nm in a Molecular Devices UVₘₐₓ kinetic microplate reader.
(§1) Trypsin and plasmin inhibition assays were performed as described elsewhere (Petersen et al., Biochemistry, 35:266-272, 1996). Briefly, trypsin and plasmin were incubated with various concentrations of inhibitor preparations for 15 minutes at 37° C. in a 96-well microtitration plate. The chromogenic substrate S-2251 was then added and residual amidolytic activity was measured in a Molecular Devices UVₘₐₓ kinetic microplate reader.

[2] = target: T2, porcine trypsin (porcine, UniProt P00761 9-231); experiment: chromogenic (S-2251) amidolytic inhibition assay, trypsin 50 nM
Protocol: as §1

[3] = target: T3, factor VIIa-tissue factor complex (human recombinant factor VIIa with recombinant soluble human tissue factor) (human, UniProt P08709 61-466; P13726 33-251, limits assumed); experiment: chromogenic (S-2288) amidolytic inhibition assay, FVIIa 50 nM / soluble TF 100 nM
T3 construct: The complex was formed from 50 nM factor VIIa and 100 nM soluble tissue factor in 5 mM CaCl2; Factor VIIa is itself a two-chain enzyme; also called FVIIa-TF; VIIa-TF
Protocol: (§2) Recombinant soluble human tissue factor (100 nM) and factor VIIa (50 nM) were incubated in a TBS-BSA buffer/5 mM CaCl₂ for 15 minutes at 37° C. Following this incubation, aliquots (100 μl) were dispensed into a 96-well microtitration plate and treated with serial dilutions of inhibitors dissolved in TBS buffer. After 15 minutes of incubation, 30 μl of S-2288 (final concentration, 1 mM) was added to each well and the absorbance at 405 nm was determined as described earlier.

[4] = target: T1, human plasmin; experiment: chromogenic amidolytic inhibition assay, plasmin; reference BPTI
Protocol: as §1

[5] = target: T2, porcine trypsin; experiment: chromogenic amidolytic inhibition assay, trypsin; reference BPTI
Protocol: as §1

[6] = target: T1, human plasmin; experiment: chromogenic amidolytic inhibition assay, plasmin; reference full-length TFPI-2
Protocol: as §1

[7] = target: T2, porcine trypsin; experiment: chromogenic amidolytic inhibition assay, trypsin; reference full-length TFPI-2
Protocol: as §1

[8] = target: T3, factor VIIa-tissue factor complex …; experiment: chromogenic amidolytic inhibition assay, FVIIa-TF; reference wild-type KD1
Protocol: as §2

[9] = target: T1, human plasmin; experiment: chromogenic amidolytic inhibition assay; reference wild-type KD1
Protocol: as §1, §2

[10] = target: T2, porcine trypsin; experiment: as above
Protocol: as §1, §2

[11] = target: T3, factor VIIa-tissue factor complex …; experiment: as above
Protocol: as §1, §2

[12] = target: T1, human plasmin; experiment: chromogenic amidolytic inhibition assay, plasmin; reference wild-type KD1
Protocol: as §1

T3 sequence (P08709 61-466 limits assumed, chain 1 of 2): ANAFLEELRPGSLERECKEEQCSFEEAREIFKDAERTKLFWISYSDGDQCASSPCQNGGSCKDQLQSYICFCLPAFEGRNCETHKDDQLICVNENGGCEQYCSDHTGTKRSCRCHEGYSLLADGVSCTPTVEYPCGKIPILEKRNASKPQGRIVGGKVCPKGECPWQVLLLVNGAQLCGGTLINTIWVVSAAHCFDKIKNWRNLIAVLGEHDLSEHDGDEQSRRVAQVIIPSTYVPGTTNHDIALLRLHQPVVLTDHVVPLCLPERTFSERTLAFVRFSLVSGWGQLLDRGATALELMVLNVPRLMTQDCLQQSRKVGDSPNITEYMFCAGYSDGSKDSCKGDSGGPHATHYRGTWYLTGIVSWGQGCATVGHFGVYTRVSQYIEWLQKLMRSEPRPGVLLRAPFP
T3 sequence (P13726 33-251 limits assumed, chain 2 of 2): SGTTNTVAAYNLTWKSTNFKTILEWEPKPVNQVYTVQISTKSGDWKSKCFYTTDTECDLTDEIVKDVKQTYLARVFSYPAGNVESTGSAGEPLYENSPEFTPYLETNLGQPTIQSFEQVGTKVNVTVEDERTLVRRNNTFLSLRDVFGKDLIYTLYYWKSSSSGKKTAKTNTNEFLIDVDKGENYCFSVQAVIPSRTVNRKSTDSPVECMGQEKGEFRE
T2 sequence (P00761 9-231 limits assumed): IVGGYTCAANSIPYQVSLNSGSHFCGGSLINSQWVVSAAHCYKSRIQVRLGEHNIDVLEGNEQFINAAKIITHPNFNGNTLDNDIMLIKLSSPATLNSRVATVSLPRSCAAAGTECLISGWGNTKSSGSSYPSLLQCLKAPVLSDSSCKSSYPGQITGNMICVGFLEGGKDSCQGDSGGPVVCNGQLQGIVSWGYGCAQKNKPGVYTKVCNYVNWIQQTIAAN
T1 sequence (P00747 97-810 limits assumed): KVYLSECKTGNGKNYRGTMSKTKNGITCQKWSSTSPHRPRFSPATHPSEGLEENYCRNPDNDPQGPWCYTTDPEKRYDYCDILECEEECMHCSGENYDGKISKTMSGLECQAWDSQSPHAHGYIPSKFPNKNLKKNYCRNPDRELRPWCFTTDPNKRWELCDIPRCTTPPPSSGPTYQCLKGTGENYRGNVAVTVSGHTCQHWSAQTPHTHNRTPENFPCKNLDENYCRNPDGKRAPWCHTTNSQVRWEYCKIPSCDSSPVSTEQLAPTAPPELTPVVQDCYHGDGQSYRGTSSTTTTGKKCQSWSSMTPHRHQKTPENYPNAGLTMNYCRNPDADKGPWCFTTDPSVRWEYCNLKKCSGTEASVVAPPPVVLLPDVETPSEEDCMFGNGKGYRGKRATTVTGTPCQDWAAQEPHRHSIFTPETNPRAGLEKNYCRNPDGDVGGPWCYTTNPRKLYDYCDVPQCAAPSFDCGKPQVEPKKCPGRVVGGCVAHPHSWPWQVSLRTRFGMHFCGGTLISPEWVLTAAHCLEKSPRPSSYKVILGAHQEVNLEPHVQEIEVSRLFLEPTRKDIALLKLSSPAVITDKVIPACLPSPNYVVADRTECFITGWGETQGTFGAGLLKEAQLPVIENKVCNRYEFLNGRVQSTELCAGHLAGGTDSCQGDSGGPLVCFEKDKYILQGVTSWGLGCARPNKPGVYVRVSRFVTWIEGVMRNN

Binder | Ki [1] [nM] | Ki [2] [nM] | Ki [3] [nM] | also measured
wild-type first Kunitz-type domain (KD1) of human TFPI-2, His-tagged, E. coli (other, the monomer was purified; also called wild-type KD1; TFPI-2 KD1; not shown: N-terminal decahistidine-tag leader and enterokinase cleavage site from pET19b) DAAQEPTGNNAEICLLPLDYGPCRALLLRYYYDRYTQSCRQFLYGGCEGNANNFYTWEACDDACWRIEKVPKV | 3 | 13 | 1640 | fold higher Ki than BPTI [4]: ~3 fold; fold less potent than BPTI [5]: 2 fold; fold more potent than full-length TFPI-2 [6]: 3 fold; fold higher inhibitory activity than full-length TFPI-2 [7]: ~2 fold
R29D KD1 (other, Point mutant of His-tagged KD1, KD1 numbering; also called R29D (R20D); not shown: N-terminal decahistidine-tag leader and enterokinase cleavage site from pET19b) DAAQEPTGNNAEICLLPLDYGPCRALLLDYYYDRYTQSCRQFLYGGCEGNANNFYTWEACDDACWRIEKVPKV | 261 | 4600 | 44600 | –
R29K KD1 (other, Point mutant of His-tagged KD1, KD1 numbering; also called R29K (R20K); not shown: N-terminal decahistidine-tag leader and enterokinase cleavage site from pET19b) DAAQEPTGNNAEICLLPLDYGPCRALLLKYYYDRYTQSCRQFLYGGCEGNANNFYTWEACDDACWRIEKVPKV | 5 | 20 | 1120 | –
R24K KD1 (other, also called R24K (R15K); R24K KD1 polypeptide; not shown: N-terminal extension from the expression vector) DAAQEPTGNNAEICLLPLDYGPCKALLLRYYYDRYTQSCRQFLYGGCEGNANNFYTWEACDDACWRIEKVPKV | 0.85 | 8 | 8550 | fold reduction of inhibitory activity (against wild-type KD1) [8]: ~5 fold
Y20A KD1 (other, Point mutant of His-tagged KD1, KD1 numbering; also called Y20A (Y11A); not shown: N-terminal decahistidine-tag leader and enterokinase cleavage site from pET19b) DAAQEPTGNNAEICLLPLDAGPCRALLLRYYYDRYTQSCRQFLYGGCEGNANNFYTWEACDDACWRIEKVPKV | 16 | 8 | 1350 | –
L26Q KD1 (other, Point mutant of His-tagged KD1, KD1 numbering; also called L26Q (L17Q); not shown: N-terminal decahistidine-tag leader and enterokinase cleavage site from pET19b) DAAQEPTGNNAEICLLPLDYGPCRAQLLRYYYDRYTQSCRQFLYGGCEGNANNFYTWEACDDACWRIEKVPKV | 29 | 162 | 54000 | fold reduction in inhibitory potency (against wild-type KD1) [9]: ≥ 10 fold; fold reduction in inhibitory potency (against wild-type KD1) [10]: ≥ 10 fold; fold reduction in inhibitory potency (against wild-type KD1) [11]: ≥ 10 fold
F42A KD1 (other, Point mutant of His-tagged KD1, KD1 numbering; also called F42A (F33A); not shown: N-terminal decahistidine-tag leader and enterokinase cleavage site from pET19b) DAAQEPTGNNAEICLLPLDYGPCRALLLRYYYDRYTQSCRQALYGGCEGNANNFYTWEACDDACWRIEKVPKV | 79 | 155 | 61200 | –
R24Q KD1 (other, Point mutant of His-tagged KD1, KD1 numbering; also called R24Q (R15Q); not shown: N-terminal decahistidine-tag leader and enterokinase cleavage site from pET19b) DAAQEPTGNNAEICLLPLDYGPCQALLLRYYYDRYTQSCRQFLYGGCEGNANNFYTWEACDDACWRIEKVPKV | 48 | 296 | 55700 | –

More lines, main results first:

Ki [1] [nM] | Ki [2] [nM] | Ki [3] [nM] | Binder | also measured
9 | 21 | 1910 | recombinant human tissue factor pathway inhibitor-2 (TFPI-2), full-length (other, Eukaryotically expressed recombinant full-length protein, described as a 213 amino acid polypeptide and prepared by a published method (Sprecher et al.); also called full-length TFPI-2; intact TFPI-2) DAAQEPTGNNAEICLLPLDYGPCRALLLRYYYDRYTQSCRQFLYGGCEGNANNFYTWEACDDACWRIEKVPKVCRLQVSVDDQCEGSTEKYFFNLSSMTCEKFFSGGCHRNRIENRFPDEATCMGFCAPKKIPSFCYSPKDEGLCSANVTRYYFNPRYRTCDAFTYTGCGGNDNNFVSREDCKRACAKALKKKKKMPKLRFASRIRKIRKKQF | –
12 | 52 | 3930 | R29A KD1 (other, Point mutant of His-tagged KD1, KD1 numbering; also called R29A (R20A); not shown: N-terminal decahistidine-tag leader and enterokinase cleavage site from pET19b) DAAQEPTGNNAEICLLPLDYGPCRALLLAYYYDRYTQSCRQFLYGGCEGNANNFYTWEACDDACWRIEKVPKV | –
59 | 42 | 26000 | G21D KD1 (other, Point mutant of His-tagged KD1, KD1 numbering; also called G21D (G12D); not shown: N-terminal decahistidine-tag leader and enterokinase cleavage site from pET19b) DAAQEPTGNNAEICLLPLDYDPCRALLLRYYYDRYTQSCRQFLYGGCEGNANNFYTWEACDDACWRIEKVPKV | –
118 | 15 | 1960 | D19A KD1 (other, Point mutant of His-tagged KD1, KD1 numbering; also called D19A (D10A); not shown: N-terminal decahistidine-tag leader and enterokinase cleavage site from pET19b) DAAQEPTGNNAEICLLPLAYGPCRALLLRYYYDRYTQSCRQFLYGGCEGNANNFYTWEACDDACWRIEKVPKV | fold loss of inhibitory activity (against wild-type KD1) [12]: ~40 fold
